Source: patent publication US20170290876A1 (Novartis, published 2017)

T1: human VEGF (human, UniProt P15692 207-395, biotinylated (site not stated))
T1 construct: Biotinylated human VEGF generated internally; also called hVEGF; hVEGF-biotin
T1 sequence: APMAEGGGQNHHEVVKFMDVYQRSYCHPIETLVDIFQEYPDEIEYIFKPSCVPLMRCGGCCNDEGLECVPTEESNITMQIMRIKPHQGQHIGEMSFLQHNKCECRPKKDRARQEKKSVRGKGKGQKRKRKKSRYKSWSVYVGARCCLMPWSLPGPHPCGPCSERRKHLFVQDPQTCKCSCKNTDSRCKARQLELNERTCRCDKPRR


Biological target: T1, human VEGF
Experiment: Biacore SPR, hVEGF
Description: At first, individual CDR residues were substituted and the affinity for hVEGF was measured by Biacore as described below. […] HC8T, and HC9T and the affinity of the resulting peptide-tagged Fab for both HA and hVEGF was measured by Biacore as described below (Table 17).
Affinity of optimized HA-binding peptide tags for HA and human VEGF were measured by Biacore. […] In order to determine target kinetics, two different formats were utilized. […] The second format is an anti-fab capture method in which the fab protein samples are captured and the target proteins flowed over at various concentrations.
The sample compartment which includes the analytes, ligands, and regeneration buffer, is kept at 15° C. All other running conditions were carried out at either 25° C. or 37° C. in 1×HBSE+P buffer. […] Data was collected at 10 Hz and analyzed using the Biacore T200 Evaluation Software (GE Healthcare®). This program uses a global fitting analysis method for the determination of rate and affinity constants for each interaction.

Binder | Kd [pM] | koff [s⁻¹] | kon [M⁻¹ s⁻¹]
LC4T (Fab, V domains shown, Light chain CDR variant LC4 with tagged NVS4 heavy chain) VH: EVQLVESGGGLVQPGGSLRLSCTASGFSLTDYYYMTWVRQAPGKGLEWVGFIDPDDDPYYATWAKGRFTISRDNSKNTLYLQMNSLRAEDTAVYYCAGGDHNSGWGLDIWGQGTLVTVSS VL: EIVMTQSPSTLSASVGDRVIITCQASQKIHSWLAWYQQKPGKAPKLLIYQASTLAKGVPSRFSGSGSGAEFTLTISSLQPDDFATYYCQNVYLASTNGANFGQGTKLTVLK | 1.49 | 0.000135 | 9.1e+07
HC4T (Fab, V domains shown, Tagged heavy chain CDR variant HC4 with NVS4 light chain) VH: EVQLVESGGGLVQPGGSLRLSCTASGFSLTNYYYMTWVRQAPGKGLEWVGFIDPQNDPYYATWAKGRFTISRDNSKNTLYLQMNSLRAEDTAVYYCAGGNHNSGWGLNIWGQGTLVTVSS VL: EIVMTQSPSTLSASVGDRVIITCQASEIIHSWLAWYQQKPGKAPKLLIYLASTLASGVPSRFSGSGSGAEFTLTISSLQPDDFATYYCQNVYLASTNGANFGQGTKLTVLK | 9.93 | 0.000912 | 9.18e+07
HC3T (Fab, V domains shown, Tagged heavy chain CDR variant HC3 with NVS4 light chain) VH: EVQLVESGGGLVQPGGSLRLSCTASGFSLTNYYYMTWVRQAPGKGLEWVGFIDPQNNPYYATWAKGRFTISRDNSKNTLYLQMNSLRAEDTAVYYCAGGNHNSGWGLDIWGQGTLVTVSS VL: EIVMTQSPSTLSASVGDRVIITCQASEIIHSWLAWYQQKPGKAPKLLIYLASTLASGVPSRFSGSGSGAEFTLTISSLQPDDFATYYCQNVYLASTNGANFGQGTKLTVLK | 80 | 0.00898 | 1.12e+08
HC6T (Fab, V domains shown, Tagged heavy chain CDR variant HC6 with NVS4 light chain) VH: EVQLVESGGGLVQPGGSLRLSCTASGFSLTNYYYMTWVRQAPGKGLEWVGFIDPQNQPYYATWAKGRFTISRDNSKNTLYLQMNSLRAEDTAVYYCAGGNHNSGWGLNIWGQGTLVTVSS VL: EIVMTQSPSTLSASVGDRVIITCQASEIIHSWLAWYQQKPGKAPKLLIYLASTLASGVPSRFSGSGSGAEFTLTISSLQPDDFATYYCQNVYLASTNGANFGQGTKLTVLK | 49.9 | 0.00624 | 1.25e+08
LC5T (Fab, V domains shown, Light chain CDR variant LC5 with tagged NVS4 heavy chain) VH: EVQLVESGGGLVQPGGSLRLSCTASGFSLTDYYYMTWVRQAPGKGLEWVGFIDPDDDPYYATWAKGRFTISRDNSKNTLYLQMNSLRAEDTAVYYCAGGDHNSGWGLDIWGQGTLVTVSS VL: EIVMTQSPSTLSASVGDRVIITCQASQIIKSWLAWYQQKPGKAPKLLIYQASTLAKGVPSRFSGSGSGAEFTLTISSLQPDDFATYYCQNVYLASTNGANFGQGTKLTVLK | 4.35 | 0.000588 | 1.35e+08
LC1T (Fab, V domains shown, Light chain CDR variant LC1 of NVS4 with tagged NVS4 heavy chain) VH: EVQLVESGGGLVQPGGSLRLSCTASGFSLTDYYYMTWVRQAPGKGLEWVGFIDPDDDPYYATWAKGRFTISRDNSKNTLYLQMNSLRAEDTAVYYCAGGDHNSGWGLDIWGQGTLVTVSS VL: EIVMTQSPSTLSASVGDRVIITCQASQIIHSWLAWYQQKPGKAPKLLIYQASTLAKGVPSRFSGSGSGAEFTLTISSLQPDDFATYYCQNVYLASTNGANFGQGTKLTVLK | 1.23 | 7.3e-05 | 5.95e+07
LC2T (Fab, V domains shown, Light chain CDR variant LC2 with tagged NVS4 heavy chain) VH: EVQLVESGGGLVQPGGSLRLSCTASGFSLTDYYYMTWVRQAPGKGLEWVGFIDPDDDPYYATWAKGRFTISRDNSKNTLYLQMNSLRAEDTAVYYCAGGDHNSGWGLDIWGQGTLVTVSS VL: EIVMTQSPSTLSASVGDRVIITCQASQKIHSWLAWYQQKPGKAPKLLIYQASKLAKGVPSRFSGSGSGAEFTLTISSLQPDDFATYYCQNVYLASTNGANFGQGTKLTVLK | 1.33 | 0.000109 | 8.18e+07
LC7T (Fab, V domains shown, Light chain CDR variant LC7 with tagged NVS4 heavy chain) VH: EVQLVESGGGLVQPGGSLRLSCTASGFSLTDYYYMTWVRQAPGKGLEWVGFIDPDDDPYYATWAKGRFTISRDNSKNTLYLQMNSLRAEDTAVYYCAGGDHNSGWGLDIWGQGTLVTVSS VL: EIVMTQSPSTLSASVGDRVIITCQASQKIKSWLAWYQQKPGKAPKLLIYLASTLAKGVPSRFSGSGSGAEFTLTISSLQPDDFATYYCQNVYLASRNGANFGQGTKLTVLK | 3.79 | 0.000229 | 6.06e+07
LC3T (Fab, V domains shown, Light chain CDR variant LC3 with tagged NVS4 heavy chain) VH: EVQLVESGGGLVQPGGSLRLSCTASGFSLTDYYYMTWVRQAPGKGLEWVGFIDPDDDPYYATWAKGRFTISRDNSKNTLYLQMNSLRAEDTAVYYCAGGDHNSGWGLDIWGQGTLVTVSS VL: EIVMTQSPSTLSASVGDRVIITCQASQKIHSWLAWYQQKPGKAPKLLIYQASKLAKGVPSRFSGSGSGAEFTLTISSLQPDDFATYYCQNVYLASRNGANFGQGTKLTVLK | 1.2 | 0.00016 | 1.34e+08
LC6T (Fab, V domains shown, Light chain CDR variant LC6 with tagged NVS4 heavy chain) VH: EVQLVESGGGLVQPGGSLRLSCTASGFSLTDYYYMTWVRQAPGKGLEWVGFIDPDDDPYYATWAKGRFTISRDNSKNTLYLQMNSLRAEDTAVYYCAGGDHNSGWGLDIWGQGTLVTVSS VL: EIVMTQSPSTLSASVGDRVIITCQASQIIHSWLAWYQQKPGKAPKLLIYQASTLAKGVPSRFSGSGSGAEFTLTISSLQPDDFATYYCQNVYLASRNGANFGQGTKLTVLK | 1.09 | 9.66e-05 | 8.88e+07
HC8T (Fab, V domains shown, Tagged heavy chain CDR variant HC8 with NVS4 light chain) VH: EVQLVESGGGLVQPGGSLRLSCTASGFSLTKYYYMTWVRQAPGKGLEWVGFIKPDKKPKYATWAKGRFTISRDNSKNTLYLQMNSLRAEDTAVYYCAGGDHNSGWGLDIWGQGTLVTVSS VL: EIVMTQSPSTLSASVGDRVIITCQASEIIHSWLAWYQQKPGKAPKLLIYLASTLASGVPSRFSGSGSGAEFTLTISSLQPDDFATYYCQNVYLASTNGANFGQGTKLTVLK | 948 | 0.0026 | 2.74e+06
HC7T (Fab, V domains shown, Tagged heavy chain CDR variant HC7 with NVS4 light chain) VH: EVQLVESGGGLVQPGGSLRLSCTASGFSLTKYYYMTWVRQAPGKGLEWVGFIKPKDKPYKATWAKGRFTISRDNSKNTLYLQMNSLRAEDTAVYYCAGGDHNSGWGLDIWGQGTLVTVSS VL: EIVMTQSPSTLSASVGDRVIITCQASEIIHSWLAWYQQKPGKAPKLLIYLASTLASGVPSRFSGSGSGAEFTLTISSLQPDDFATYYCQNVYLASTNGANFGQGTKLTVLK | 554 | 0.186 | 3.37e+08

Biological target: T1, human VEGF
Experiment: Biacore SPR, hVEGF
Remark: another data set of the same source

Binder | Kd [pM] | koff [s⁻¹] | kon [M⁻¹ s⁻¹]
NVS4/NVSX (Fab, NVS4 Fab linked to peptide tag NVS-X) heavy: EVQLVESGGGLVQPGGSLRLSCTASGFSLTDYYYMTWVRQAPGKGLEWVGFIDPDDDPYYATWAKGRFTISRDNSKNTLYLQMNSLRAEDTAVYYCAGGDHNSGWGLDIWGQGTLVTVSSASTKGPSVFPLAPSSKSTSGGTAALGCLVKDYFPEPVTVSWNSGALTSGVHTFPAVLQSSGLYSLSSVVTVPSSSLGTQTYICNVNHKPSNTKVDKRVEPKSCGSGGGGVYHREAISGKYYLTYAEAKAVCEFEGGHLATYKQLLAAQKIGFHVCAAGWMAKGRVGYPIVKPGPNCGFGKTGIIDYGIRLNRSERWDAYCYNPHA light: EIVMTQSPSTLSASVGDRVIITCQASEIIHSWLAWYQQKPGKAPKLLIYLASTLASGVPSRFSGSGSGAEFTLTISSLQPDDFATYYCQNVYLASTNGANFGQGTKLTVLKRTVAAPSVFIFPPSDEQLKSGTASVVCLLNNFYPREAKVQWKVDNALQSGNSQESVTEQDSKDSTYSLSSTLTLSKADYEKHKVYACEVTHQGLSSPVTKSFNRGEC | 0.465 | 2.11e-05 | 4.53e+07
